What was measured:
Assay in all cases: FP
[1] = target: SARS-CoV NSP14 peptide with the YxxL motif, synthetic (SARS-CoV, UniProt P0C6X7)
[2] = target: SARS-CoV-2 NSP14 peptide with the YxxL motif, synthetic (SARS-CoV-2, UniProt P0DTD1)
[3] = target: MERS-CoV NSP14 peptide with the YxxL motif, synthetic (MERS-CoV, UniProt K9N7C7)
SARS-CoV E 1-16 = target: SARS-CoV E 1-16
SARS-CoV NSP3 2019-2038 = target: SARS-CoV NSP3 2019-2038
SARS-CoV-2 E 1-16 = target: SARS-CoV-2 E 1-16
[4] = target: SARS-CoV-2 NSP3 2019-2038
NTF2 domain of G3BP2 = target: T1, NTF2 domain of G3BP2 (human, UniProt Q9UN86 11-133)
T1 chain: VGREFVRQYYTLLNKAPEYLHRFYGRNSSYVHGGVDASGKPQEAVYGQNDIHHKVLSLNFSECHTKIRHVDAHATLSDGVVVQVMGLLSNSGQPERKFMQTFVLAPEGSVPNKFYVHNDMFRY

NTF2 domain of G3BP1 = NTF2 domain of G3BP1 (human, UniProt Q13283 11-133)
Chain of NTF2 domain of G3BP1 (Q13283 11-133): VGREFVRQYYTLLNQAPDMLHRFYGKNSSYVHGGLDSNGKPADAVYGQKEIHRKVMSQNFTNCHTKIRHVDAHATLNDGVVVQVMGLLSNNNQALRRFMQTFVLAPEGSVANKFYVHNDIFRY

B1: clathrin coat adaptor protein AP2M1, tag removed (domain or fragment)
chain: RNELFLDVLESVNLLMSPQGQVLSAHVSGRVVMKSYLSGMPECKFGMNDKIVIEKQGKGTADETSKSGKQSIAIDDCTFHQCVRLSKFDSERSISFIPPDGEFELMRYRTTKDIILPFRVIPLVREVGRTKLEVKVVIKSNFKPSLLAQKIEVRIPTPLNTSGVQVICMKGKAKYKASENAIVWKIKRMAGMKESQISAEIELLPTNDKKKWARPPISMNFEVPFAPSGLKVRYLKVFEPKLNYSDHDVIKWVRYIGRSGIYETR
Kd [1]: 1.6 µM
Kd [2]: 1.6 µM
Kd [3]: 3 µM

B2: FERM domain of Radixin (domain or fragment)
chain: INVRVTTMDAELEFAIQPNTTGKQLFDQVVKTVGLREVWFFGLQYVDSKGYSTWLKLNKKVTQQDVKKENPLQFKFRAKFFPEDVSEELIQEITQRLFFLQVKEAILNDEIYCPPETAVLLASYAVQAKYGDYNKEIHKPGYLANDRLLPQRVLEQHKLTKEQWEERIQNWHEEHRGMLREDSMMEYLKIAQDLEMYGVNYFEIKNKKGTELWLGVDALGLNIYEHDDKLTPKIGFPWSEIRNISFNDKKFVIKPIDKKAPDFVFYAPRLRINKRILALCMGNHELYMRRR
Kd (SARS-CoV E 1-16): 11.9 µM
Kd (SARS-CoV NSP3 2019-2038): 217 µM
Kd (SARS-CoV-2 E 1-16): 11.9 µM
Kd [4]: 38 µM

APRITFGGPTDSTDNN [SARS-CoV N peptide with the ΦxFG motif, synthetic]
Kd (NTF2 domain of G3BP2): 1.7 µM
Kd (NTF2 domain of G3BP1): 2.8 µM

APRITFGGPSDSTGSN [SARS-CoV-2 N peptide with the ΦxFG motif, synthetic]
Kd (NTF2 domain of G3BP2): 2.8 µM

APRAVSFADNNDITNT [MERS-CoV N peptide corresponding to the ΦxFG peptide, synthetic]
Kd (NTF2 domain of G3BP2): 26 µM
Kd (NTF2 domain of G3BP1): 51 µM

Source: PMC8605023 (2021)
